Test [1] addresses LILRB1 and LILRB2 on human primary myeloid cells (monocytes, M0 and M2c macrophages, mDCs, neutrophils). The test can be described thus: flow cytometry, M2c macrophages, AF647-labelled antibody, mean of two subjects. A general note: In flow cytometry, cells or beads pass a laser one at a time.
For test [2] the target is unchanged. The test can be described thus: flow cytometry, M0 macrophages, AF647-labelled antibody, mean of two subjects.
Test [3] has the same target. The test can be described thus: flow cytometry, monocytes, AF647-labelled antibody, mean of two subjects.

B1: Comp 1 (anti-LILRB1 antibody) (antibody, human IgG1, kappa, V domains shown)
VH: QVQLKESGPGLVAPSQSLSITCTVSGFSLTNYGVSWVRQPPGKGLEWLGIIWGDGSTNYHSALISRLSISKDNSKSQVFLKLNSLQADDTATYYCAKPNWDTYAMDFWGQGTSVTVSS
VL: DIQMTQTTSSLSASLGDRVTISCRASQDISNFLNWYQQKPDGTVKLLIYCTSKLHSGVPSRFSGSGSETDYSLTISNLEQEDIATYFCQQGNTLPPTFGGGTKLEIIR
The EC50 is the concentration that produces a half-maximal response. Low readings indicate greater potency, high ones weaker potency. On to B1, for which the EC50 was found to be 0.0862 µg/mL in test [1], 0.0937 µg/mL in test [2] and 0.823 µg/mL in test [3].

(Values after patent publication US20250002577A1.)
